Data as given in patent US20240287154A1, “MC3R AGONIST PEPTIDES” (The Regents of the University of Michigan, priority 2021, published 2024).
Non-standard residues stand in square brackets, D forms with d. PKcap1 = N-terminal cap C18 diacid-γGlu-mPEG2; PKcap2 = N-terminal cap Aryl(4-I)-Gly-mPEG2; Bip = N[C@@H](Cc1ccc(-c2ccccc2)cc1)C(=O)O; Phe(4-Br) = N[C@@H](Cc1ccc(Br)cc1)C(=O)O; Phe(4-Cl) = N[C@@H](Cc1ccc(Cl)cc1)C(=O)O; Phe(4-I) = N[C@@H](Cc1ccc(I)cc1)C(=O)O; Nle = CCCC[C@H](N)C(=O)O; dAbu = CC[C@@H](N)C(=O)O; Aib = CC(C)(N)C(=O)O

B1: CTX-1143 (peptide)
peptide: Ac-[Nle][Aib]HFR[dW]DRFG-OH
SMILES: CCCC[C@H](NC(C)=O)C(=O)NC(C)(C)C(=O)N[C@@H](Cc1c[nH]cn1)C(=O)N[C@@H](Cc1ccccc1)C(=O)N[C@@H](CCCNC(=N)N)C(=O)N[C@H](Cc1c[nH]c2ccccc12)C(=O)N[C@@H](CC(=O)O)C(=O)N[C@@H](CCCNC(=N)N)C(=O)N[C@@H](Cc1ccccc1)C(=O)NCC(=O)O
B2: CTX-1167 (peptide)
peptide: Ac-[Nle][dA]H[Phe(4-I)]R[dW]DRFG-OH
SMILES: CCCC[C@H](NC(C)=O)C(=O)N[C@H](C)C(=O)N[C@@H](Cc1c[nH]cn1)C(=O)N[C@@H](Cc1ccc(I)cc1)C(=O)N[C@@H](CCCNC(=N)N)C(=O)N[C@H](Cc1c[nH]c2ccccc12)C(=O)N[C@@H](CC(=O)O)C(=O)N[C@@H](CCCNC(=N)N)C(=O)N[C@@H](Cc1ccccc1)C(=O)NCC(=O)O
B3: CTX-1168 (peptide)
peptide: Ac-[Nle][dA]H[Bip]R[dW]DRFG-NH2
SMILES: CCCC[C@H](NC(C)=O)C(=O)N[C@H](C)C(=O)N[C@@H](Cc1c[nH]cn1)C(=O)N[C@@H](Cc1ccc(-c2ccccc2)cc1)C(=O)N[C@@H](CCCNC(=N)N)C(=O)N[C@H](Cc1c[nH]c2ccccc12)C(=O)N[C@@H](CC(=O)O)C(=O)N[C@@H](CCCNC(=N)N)C(=O)N[C@@H](Cc1ccccc1)C(=O)NCC(N)=O
B4: CTX-1154 (peptide)
peptide: PKcap2-G[Nle][dA]HFR[dW]DR[dF]G-OH
B5: CTX-1144 (peptide)
peptide: Ac-[Nle][dAbu]HFR[dW]DRFG-OH
SMILES: CCCC[C@H](NC(C)=O)C(=O)N[C@H](CC)C(=O)N[C@@H](Cc1c[nH]cn1)C(=O)N[C@@H](Cc1ccccc1)C(=O)N[C@@H](CCCNC(=N)N)C(=O)N[C@H](Cc1c[nH]c2ccccc12)C(=O)N[C@@H](CC(=O)O)C(=O)N[C@@H](CCCNC(=N)N)C(=O)N[C@@H](Cc1ccccc1)C(=O)NCC(=O)O
B6: CTX-1163 (peptide)
peptide: Ac-[Nle][dA]HFR[dW]DR-NH2
SMILES: CCCC[C@H](NC(C)=O)C(=O)N[C@H](C)C(=O)N[C@@H](Cc1c[nH]cn1)C(=O)N[C@@H](Cc1ccccc1)C(=O)N[C@@H](CCCNC(=N)N)C(=O)N[C@H](Cc1c[nH]c2ccccc12)C(=O)N[C@@H](CC(=O)O)C(=O)N[C@@H](CCCNC(=N)N)C(N)=O
B7: CTX-1148 (peptide)
peptide: PKcap2-G[Nle][dA]HFR[dW]DRFG-OH
B8: CTX-1166 (peptide)
peptide: Ac-[Nle][dA]H[Phe(4-Cl)]R[dW]DRFG-OH
SMILES: CCCC[C@H](NC(C)=O)C(=O)N[C@H](C)C(=O)N[C@@H](Cc1c[nH]cn1)C(=O)N[C@@H](Cc1ccc(Cl)cc1)C(=O)N[C@@H](CCCNC(=N)N)C(=O)N[C@H](Cc1c[nH]c2ccccc12)C(=O)N[C@@H](CC(=O)O)C(=O)N[C@@H](CCCNC(=N)N)C(=O)N[C@@H](Cc1ccccc1)C(=O)NCC(=O)O
B9: CTX-1170 (peptide)
peptide: Ac-[Nle][dA]H[Phe(4-I)]R[dW]DR-NH2
SMILES: CCCC[C@H](NC(C)=O)C(=O)N[C@H](C)C(=O)N[C@@H](Cc1c[nH]cn1)C(=O)N[C@@H](Cc1ccc(I)cc1)C(=O)N[C@@H](CCCNC(=N)N)C(=O)N[C@H](Cc1c[nH]c2ccccc12)C(=O)N[C@@H](CC(=O)O)C(=O)N[C@@H](CCCNC(=N)N)C(N)=O
B10: CTX-1147 (peptide)
peptide: PKcap1-G[Nle][dA]HFR[dW]DRFG-OH
B11: CTX-1169 (peptide)
peptide: Ac-[Nle][dA]H[Phe(4-I)]R[dW]DRF-NH2
SMILES: CCCC[C@H](NC(C)=O)C(=O)N[C@H](C)C(=O)N[C@@H](Cc1c[nH]cn1)C(=O)N[C@@H](Cc1ccc(I)cc1)C(=O)N[C@@H](CCCNC(=N)N)C(=O)N[C@H](Cc1c[nH]c2ccccc12)C(=O)N[C@@H](CC(=O)O)C(=O)N[C@@H](CCCNC(=N)N)C(=O)N[C@@H](Cc1ccccc1)C(N)=O
B12: CTX-1160 (peptide)
peptide: Ac-[Nle][dA]HFR[dW]DR[dF]K-OH
SMILES: CCCC[C@H](NC(C)=O)C(=O)N[C@H](C)C(=O)N[C@@H](Cc1c[nH]cn1)C(=O)N[C@@H](Cc1ccccc1)C(=O)N[C@@H](CCCNC(=N)N)C(=O)N[C@H](Cc1c[nH]c2ccccc12)C(=O)N[C@@H](CC(=O)O)C(=O)N[C@@H](CCCNC(=N)N)C(=O)N[C@H](Cc1ccccc1)C(=O)N[C@@H](CCCCN)C(=O)O
B13: CTX-1151 (peptide)
peptide: PKcap1-G[dY]V[Nle][dA]HFR[dW]DRFG-OH
B14: CTX-1122 (peptide)
peptide: Ac-[Nle][dA]HFR[dW]DRFG-OH
SMILES: CCCC[C@H](NC(C)=O)C(=O)N[C@H](C)C(=O)N[C@@H](Cc1c[nH]cn1)C(=O)N[C@@H](Cc1ccccc1)C(=O)N[C@@H](CCCNC(=N)N)C(=O)N[C@H](Cc1c[nH]c2ccccc12)C(=O)N[C@@H](CC(=O)O)C(=O)N[C@@H](CCCNC(=N)N)C(=O)N[C@@H](Cc1ccccc1)C(=O)NCC(=O)O
B15: CTX-1156 (peptide)
peptide: PKcap2-G[dY]V[Nle][dA]HFR[dW]D[dR]FG-OH
B16: CTX-1164 (peptide)
peptide: Ac-[Nle][dA]HFR[dW]GKPV-NH2
SMILES: CCCC[C@H](NC(C)=O)C(=O)N[C@H](C)C(=O)N[C@@H](Cc1c[nH]cn1)C(=O)N[C@@H](Cc1ccccc1)C(=O)N[C@@H](CCCNC(=N)N)C(=O)N[C@H](Cc1c[nH]c2ccccc12)C(=O)NCC(=O)N[C@@H](CCCCN)C(=O)N1CCC[C@H]1C(=O)N[C@H](C(N)=O)C(C)C
B17: CTX-1149 (PKcap1, SEQ ID NO 40) (peptide)
peptide: PKcap1-GV[Nle][dA]HFR[dW]DRFG-OH
B18: CTX-1165 (peptide)
peptide: Ac-[Nle][dA]H[Phe(4-Br)]R[dW]DRFG-OH
SMILES: CCCC[C@H](NC(C)=O)C(=O)N[C@H](C)C(=O)N[C@@H](Cc1c[nH]cn1)C(=O)N[C@@H](Cc1ccc(Br)cc1)C(=O)N[C@@H](CCCNC(=N)N)C(=O)N[C@H](Cc1c[nH]c2ccccc12)C(=O)N[C@@H](CC(=O)O)C(=O)N[C@@H](CCCNC(=N)N)C(=O)N[C@@H](Cc1ccccc1)C(=O)NCC(=O)O
B19: CTX-1150 (peptide)
peptide: PKcap2-GV[Nle][dA]HFR[dW]DRFG-OH
B20: CTX-1153 (peptide)
peptide: PKcap1-G[Nle][dA]HFR[dW]DR[dF]G-OH
B21: CTX-1171 (peptide)
peptide: H-[dY]V[Nle][dA]H[Phe(4-I)]R[dW]D-NH2
SMILES: CCCC[C@H](NC(=O)[C@@H](NC(=O)[C@H](N)Cc1ccc(O)cc1)C(C)C)C(=O)N[C@H](C)C(=O)N[C@@H](Cc1c[nH]cn1)C(=O)N[C@@H](Cc1ccc(I)cc1)C(=O)N[C@@H](CCCNC(=N)N)C(=O)N[C@H](Cc1c[nH]c2ccccc12)C(=O)N[C@@H](CC(=O)O)C(N)=O
B22: CTX-1155 (peptide)
peptide: PKcap1-G[dY]V[Nle][dA]HFR[dW]D[dR]FG-OH

Molecular target: human MC3R (human, UniProt P41968 1-323)
Sequence (P41968 whole entry): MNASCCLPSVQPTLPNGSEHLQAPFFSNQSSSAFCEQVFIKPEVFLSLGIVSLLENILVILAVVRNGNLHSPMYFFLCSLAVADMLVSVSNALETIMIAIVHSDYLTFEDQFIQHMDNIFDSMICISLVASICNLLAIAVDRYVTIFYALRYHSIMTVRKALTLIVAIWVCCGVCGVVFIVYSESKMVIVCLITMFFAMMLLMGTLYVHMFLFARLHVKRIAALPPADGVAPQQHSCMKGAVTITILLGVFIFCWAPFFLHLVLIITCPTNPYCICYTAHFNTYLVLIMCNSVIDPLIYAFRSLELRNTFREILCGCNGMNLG
Assay: cell-based or functional assay

Binder | MC3R cAMP (EC50) [nM] | MC3R selectivity (relative to MC4R)
B1 | 13.4 | 3540
B2 | 4.8 | 937
B3 | 28.6 | 485
B4 | 5.8 | 1070
B5 | 6.6 | 2630
B6 | 19.4 | 282
B7 | 1.5 | 1200
B8 | 1.6 | 3100
B9 | 26 | 67
B10 | 556 | 335
B11 | 4.8 | 200
B12 | 9.8 | 1260
B13 | 299 | 126
B14 | 1.2 | 7700
B15 | 8.6 | 86
B16 | 1.5 | 83
B17 | 313 | 215
B18 | 3 | 5600
B19 | 2.9 | 577
B20 | 5120 | 0.13
B21 | 54 | 234
B22 | 3130 | 415
